Measured values: the Immune Epitope Database (IEDB)

What was measured:
HLA-B*57:01 [1] = assay: IEDB peptide-MHC binding, purified MHC/direct/fluorescence; filed as Kd, often an IC50 or EC50 that approximates it; ≥ and ≤ were set here for values at or beyond the usual limits of such assays
HLA-B*15:17 = assay: as above
HLA-B*58:01 [2] = assay: as above
HLA-A*01:01 [3] = assay: as above
HLA-A*02:01 [4] = assay: IEDB peptide-MHC binding, purified MHC/competitive/fluorescence; filed as Kd, often an IC50 or EC50 that approximates it; ≥ and ≤ were set here for values at or beyond the usual limits of such assays
HLA-B*39:01 = assay: as above
HLA-B*46:01 = assay: as above
HLA-A*69:01 [5] = assay: as above
HLA-B*51:01 = assay: as above
HLA-A*26:01 [6] = assay: as above
HLA-B*27:03 = assay: as above
HLA-A*03:01 = assay: IEDB peptide-MHC binding, purified MHC/direct/fluorescence; filed as Kd, often an IC50 or EC50 that approximates it; ≥ and ≤ were set here for values at or beyond the usual limits of such assays
HLA-B*08:01 = assay: as above
HLA-B*07:02 = assay: as above
HLA-A*02:01 [7] = assay: as above
HLA-A*69:01 [8] = assay: as above
HLA-A*11:01 = assay: as above
HLA-A*31:01 = assay: as above
HLA-B*44:02 = assay: as above
HLA-A*26:01 [9] = assay: as above
HLA-A*24:03 = assay: as above
HLA-B*15:01 [10] = assay: as above
HLA-B*27:05 = assay: as above
HLA-B*40:01 = assay: as above
HLA-A*32:01 = assay: IEDB peptide-MHC binding, purified MHC/competitive/radioactivity; filed as Kd, often an IC50 or EC50 that approximates it; ≥ and ≤ were set here for values at or beyond the usual limits of such assays; settings: source organism: Dengue virus 2 Jamaica/1409/1983
HLA-B*57:01 [11] = assay: as above
HLA-B*58:01 [12] = assay: as above
HLA-A*24:02 = assay: as above
HLA-B*53:01 = assay: as above; settings: source organism: Dengue virus 4 Philippines/H241/1956
HLA-A*26:01 [13] = assay: as above
HLA-A*23:01 = assay: as above; settings: source organism: Dengue virus 1 Brazil/97-11/1997
HLA-A*01:01 [14] = assay: as above; settings: source organism: Dengue virus 1 Brazil/97-11/1997
HLA-B*48:01 = assay: IEDB peptide-MHC binding, purified MHC/direct/fluorescence; filed as Kd, often an IC50 or EC50 that approximates it; ≥ and ≤ were set here for values at or beyond the usual limits of such assays; settings: source organism: Escherichia coli O157:H7
HLA-B*18:01 [15] = assay: as above; settings: source organism: Escherichia coli O157:H7
HLA-A*68:02 [16] = assay: as above; settings: source organism: Escherichia coli O157:H7
HLA-A*68:02 [17] = assay: IEDB peptide-MHC binding, purified MHC/competitive/radioactivity; filed as Kd, often an IC50 or EC50 that approximates it; ≥ and ≤ were set here for values at or beyond the usual limits of such assays; settings: source organism: Dengue virus 2 Jamaica/1409/1983
HLA-B*57:01 [18] = assay: IEDB peptide-MHC binding, purified MHC/competitive/fluorescence; filed as Kd, often an IC50 or EC50 that approximates it; ≥ and ≤ were set here for values at or beyond the usual limits of such assays; settings: source organism: Macaca mulatta
HLA-B*18:01 [19] = assay: as above; settings: source organism: Macaca mulatta
HLA-B*15:01 [20] = assay: as above; settings: source organism: Macaca mulatta
[21] = source organism: Vibrio cholerae
[22] = source organism: Influenza B virus
[23] = source organism: Salmonella enterica subsp. enterica serovar Typhimurium
[24] = source organism: Dengue virus 2 Jamaica/1409/1983
[25] = source organism: Yersinia pestis
[26] = source organism: Dengue virus 1 Singapore/S275/1990
[27] = source organism: Dengue virus 3 Martinique/1243/1999
[28] = source organism: Dengue virus 4 Philippines/H241/1956
[29] = source organism: Salmonella enterica subsp. enterica serovar Typhi
[30] = source organism: Dengue virus 1 Brazil/97-11/1997
[31] = source organism: Dengue virus 3 Sri Lanka/1266/2000
[32] = source organism: Escherichia coli O157:H7
[33] = source organism: Macaca mulatta

KAYSEAETF
Kd (HLA-B*57:01 [1]; [21]): 0.173 µM | Kd (HLA-B*15:17; [21]): 0.0215 µM | Kd (HLA-B*58:01 [2]; [21]): 0.0238 µM

WSTIWRQLY
Kd (HLA-A*01:01 [3]; source organism: Mus musculus): 0.01 µM | Kd (HLA-A*02:01 [4]; source organism: Homo sapiens): ≥ 20 µM | Kd (HLA-B*39:01; source organism: Homo sapiens): ≥ 20 µM | Kd (HLA-B*46:01; source organism: Homo sapiens): ≥ 20 µM | Kd (HLA-A*69:01 [5]; source organism: Homo sapiens): ≥ 20 µM | Kd (HLA-B*51:01; source organism: Homo sapiens): ≥ 20 µM | Kd (HLA-A*26:01 [6]; source organism: Homo sapiens): ≥ 20 µM | Kd (HLA-B*27:03; source organism: Homo sapiens): ≥ 20 µM

KSEPEGTRM
Kd (HLA-B*57:01 [1]; [22]): ≥ 20 µM | Kd (HLA-B*15:17; [22]): 3.5 µM | Kd (HLA-B*58:01 [2]; [22]): 19.7 µM

NSDYMMWVG
Kd (HLA-A*03:01; [23]): ≥ 20 µM | Kd (HLA-B*08:01; [23]): ≥ 20 µM | Kd (HLA-B*07:02; [23]): ≥ 20 µM | Kd (HLA-A*02:01 [7]; [23]): ≥ 20 µM | Kd (HLA-A*69:01 [8]; [23]): ≥ 20 µM | Kd (HLA-A*11:01; [23]): ≥ 20 µM | Kd (HLA-A*31:01; [23]): ≥ 20 µM | Kd (HLA-B*44:02; [23]): ≥ 20 µM | Kd (HLA-A*26:01 [9]; [23]): ≥ 20 µM | Kd (HLA-A*24:03; [23]): ≥ 20 µM | Kd (HLA-B*15:01 [10]; [23]): ≥ 20 µM | Kd (HLA-B*58:01 [2]; [23]): ≥ 20 µM | Kd (HLA-B*27:05; [23]): ≥ 20 µM | Kd (HLA-B*40:01; [23]): ≥ 20 µM | Kd (HLA-A*01:01 [3]; [23]): ≥ 20 µM

ILIGVIITW
Kd (HLA-A*32:01): ≥ 23.5 µM | Kd (HLA-B*57:01 [11]; [24]): 0.352 µM | Kd (HLA-B*58:01 [12]; [24]): 1.53 µM

LYILGLFKF
Kd (HLA-A*24:03; source organism: Orthohantavirus hantanense): 0.115 µM

TSDGFINGW
Kd (HLA-B*15:17; [25]): 0.251 µM | Kd (HLA-B*58:01 [2]; [25]): 0.088 µM

VMASSVLLW
Kd (HLA-B*57:01 [11]; [26]): 0.00656 µM | Kd (HLA-A*24:02; [26]): 0.113 µM | Kd (HLA-B*58:01 [12]; [26]): 0.00128 µM

GAVFTEENQW
Kd (HLA-B*58:01 [12]; [27]): 0.0226 µM

LSSKPEFCIK
Kd (HLA-B*58:01 [12]; [28]): 10.6 µM

VASAGISYKD
Kd (HLA-B*57:01 [11]; [28]): 4.69 µM | Kd (HLA-B*58:01 [12]; [28]): 3.92 µM

FVIDNVHTW
Kd (HLA-B*53:01): 0.00122 µM | Kd (HLA-A*26:01 [13]; [28]): 0.0548 µM | Kd (HLA-B*58:01 [12]; [28]): 0.0177 µM

SASRAWNVWE
Kd (HLA-B*57:01 [11]; [27]): 0.279 µM | Kd (HLA-B*58:01 [12]; [27]): 0.0539 µM

PSEDEQQGH
Kd (HLA-A*03:01; [29]): ≥ 20 µM | Kd (HLA-B*08:01; [29]): ≥ 20 µM | Kd (HLA-B*07:02; [29]): ≥ 20 µM | Kd (HLA-A*02:01 [7]; [29]): ≥ 20 µM | Kd (HLA-A*69:01 [8]; [29]): ≥ 20 µM | Kd (HLA-A*11:01; [29]): ≥ 20 µM | Kd (HLA-A*31:01; [29]): ≥ 20 µM | Kd (HLA-B*44:02; [29]): ≥ 20 µM | Kd (HLA-A*26:01 [9]; [29]): ≥ 20 µM | Kd (HLA-A*24:03; [29]): ≥ 20 µM | Kd (HLA-B*15:01 [10]; [29]): ≥ 20 µM | Kd (HLA-B*58:01 [2]; [29]): ≥ 20 µM | Kd (HLA-B*27:05; [29]): ≥ 20 µM | Kd (HLA-B*40:01; [29]): ≥ 20 µM | Kd (HLA-A*01:01 [3]; [29]): ≥ 20 µM

VTAKWLWGF
Kd (HLA-A*24:02; [30]): 0.241 µM | Kd (HLA-A*26:01 [13]; [30]): 12.8 µM | Kd (HLA-B*58:01 [12]; [30]): 0.059 µM | Kd (HLA-A*23:01): 0.417 µM | Kd (HLA-A*01:01 [14]): 13.9 µM

KAAVEDEEF
Kd (HLA-B*57:01 [11]; [31]): 1.67 µM | Kd (HLA-B*58:01 [12]; [31]): 0.0619 µM

EEDAAVDDL
Kd (HLA-B*07:02; [32]): ≥ 20 µM | Kd (HLA-B*48:01): ≥ 20 µM | Kd (HLA-A*02:01 [7]; [32]): ≥ 20 µM | Kd (HLA-B*57:01 [1]; [32]): ≥ 20 µM | Kd (HLA-B*18:01 [15]): ≥ 20 µM | Kd (HLA-A*69:01 [8]; [32]): ≥ 20 µM | Kd (HLA-A*11:01; [32]): ≥ 20 µM | Kd (HLA-A*31:01; [32]): ≥ 20 µM | Kd (HLA-A*68:02 [16]): ≥ 20 µM | Kd (HLA-B*15:17; [32]): ≥ 20 µM | Kd (HLA-B*58:01 [2]; [32]): ≥ 20 µM | Kd (HLA-B*27:05; [32]): ≥ 20 µM | Kd (HLA-B*40:01; [32]): 1.45 µM | Kd (HLA-A*01:01 [3]; [32]): ≥ 20 µM

RVLNLVENW
Kd (HLA-A*32:01): 0.0213 µM | Kd (HLA-B*57:01 [11]; [24]): 0.00243 µM | Kd (HLA-B*58:01 [12]; [24]): 0.00134 µM

NASGNIVSSV
Kd (HLA-B*57:01 [11]; [24]): 0.464 µM | Kd (HLA-A*68:02 [17]): 0.048 µM | Kd (HLA-B*58:01 [12]; [24]): 0.112 µM

SAEVVTLWY
Kd (HLA-A*01:01 [3]; source organism: Pomacentrus moluccensis): 0.0016 µM | Kd (HLA-A*02:01 [4]; [33]): ≥ 20 µM | Kd (HLA-B*39:01; [33]): ≥ 20 µM | Kd (HLA-B*46:01; [33]): ≥ 20 µM | Kd (HLA-B*57:01 [18]): ≥ 20 µM | Kd (HLA-B*18:01 [19]): ≥ 20 µM | Kd (HLA-A*69:01 [5]; [33]): ≥ 20 µM | Kd (HLA-B*51:01; [33]): ≥ 20 µM | Kd (HLA-A*26:01 [6]; [33]): ≥ 20 µM | Kd (HLA-B*15:01 [20]): ≥ 20 µM | Kd (HLA-B*27:03; [33]): ≥ 20 µM

KGKRIEPSW
Kd (HLA-B*57:01 [11]; [24]): 0.0131 µM | Kd (HLA-B*58:01 [12]; [24]): 0.0112 µM

IGLTSRATW
Kd (HLA-B*57:01 [11]; [24]): 0.00687 µM | Kd (HLA-B*58:01 [12]; [24]): 0.00611 µM

LSSLLKNDVP
Kd (HLA-B*57:01 [11]; [30]): 7.26 µM | Kd (HLA-B*58:01 [12]; [30]): 0.819 µM

LTSKELMMAT
Kd (HLA-B*57:01 [11]; [24]): ≥ 29.8 µM | Kd (HLA-B*58:01 [12]; [24]): 1.13 µM
